Experimental data published in patent publication US12171803B2, “Methods of CD40 and toll like receptor immune activation” (MEMGEN, INC., priority 2017, dated 2024).

Tested on: B16.F10 tumors
Assay: Tumor growth of B16.F10 tumors subcutaneously implanted in mice
Format: in vivo
Conditions: ISF35 combination therapy versus agonist CD40 antibody combination therapy; B16.F10 tumors subcutaneously implanted in C54/BL6 mice
From the text: Tumor growth curves of B16.F10 tumors subcutaneously implanted in C54/BL6 mice. Individual animal tumor growth curves are shown.

B1: ISF35: chimeric CD154 polypeptide; domain IV of human CD154 linked to domains I, II and III of human CD154; SEQ ID NO 6 (protein)
chain: MIETYNQTSPRSAATGLPISMKIFMYLLTVFLITQMIGSALFAVYLHRRLDKIEDERNLHEDFVFMKTIQRCNTGERSLSLLNCEEIKSQFEGFVKDIMLNKEETKKDEDPQIAAHVVSEANSNAASVLQWAKKGYYTMKSNLVTLENGKQLTVKRQGLYYIYAQVTFCSNREASSQAPFIVGLWLKPSSGSERILLKAANTHSSSQLCEQQSIHLGGVFELQPGASVFVNVTDPSQVSHGTGFTSFGLLKL
modifications: ISF35 (MEM40)
  Tumor growth curves (activity of combination therapy): Superior activity
